According to the Immune Epitope Database (IEDB):

Assays:
Assay in all cases: IEDB peptide-MHC binding, purified MHC/competitive/radioactivity; ≥ and ≤ were set here for values at or beyond the usual limits of such assays
Details in all cases: source organism: Bordetella pertussis
HLA-B*35:01 = molecular target: HLA-B*35:01
HLA-B*44:03 = molecular target: HLA-B*44:03
HLA-B*07:02 = molecular target: HLA-B*07:02
HLA-A*02:01 = molecular target: HLA-A*02:01
HLA-B*57:01 = molecular target: HLA-B*57:01
HLA-B*53:01 = molecular target: HLA-B*53:01

## AAAEVAGAL
HLA-B*35:01
  IC50: 69.9 µM
HLA-B*44:03
  IC50: 49.4 µM
HLA-B*07:02
  IC50: 6.11 µM

## AGKSLKKKN
HLA-A*02:01
  IC50: ≥ 78.1 µM

## APPGAGFIY
HLA-B*35:01
  IC50: 16.5 µM

## ECSGKQDCP
HLA-B*07:02
  IC50: 69.6 µM

## EHRMQEAVE
HLA-A*02:01
  IC50: ≥ 78.1 µM

## ESAEGRKIF
HLA-B*44:03
  IC50: 36.7 µM
HLA-B*57:01
  IC50: ≥ 70.4 µM

## FETYALTGI
HLA-B*44:03
  IC50: 35.8 µM

## IPFQRALRL
HLA-B*53:01
  IC50: 2.3 µM

## IVIPPKALF
HLA-B*57:01
  IC50: 45.6 µM

## MEYFKTPLP
HLA-B*44:03
  IC50: 28.1 µM

## VAAAADLAL
HLA-B*53:01
  IC50: 21.7 µM

## VPFCFGKDL
HLA-B*07:02
  IC50: 12.1 µM

## VTMRYLASY
HLA-B*35:01
  IC50: 35.4 µM
HLA-B*57:01
  IC50: 0.0142 µM

## YDTGDLIAY
HLA-B*35:01
  IC50: 69.9 µM
